According to paper doi:10.1101/2025.10.20.683411 (bioRxiv, 2025):

T1: hNup153 (aa875-1475) (human, UniProt P49790 875-1475, fluorescein-5-maleimide label (labelled protein mixed with unlabelled protein))
T1 sequence: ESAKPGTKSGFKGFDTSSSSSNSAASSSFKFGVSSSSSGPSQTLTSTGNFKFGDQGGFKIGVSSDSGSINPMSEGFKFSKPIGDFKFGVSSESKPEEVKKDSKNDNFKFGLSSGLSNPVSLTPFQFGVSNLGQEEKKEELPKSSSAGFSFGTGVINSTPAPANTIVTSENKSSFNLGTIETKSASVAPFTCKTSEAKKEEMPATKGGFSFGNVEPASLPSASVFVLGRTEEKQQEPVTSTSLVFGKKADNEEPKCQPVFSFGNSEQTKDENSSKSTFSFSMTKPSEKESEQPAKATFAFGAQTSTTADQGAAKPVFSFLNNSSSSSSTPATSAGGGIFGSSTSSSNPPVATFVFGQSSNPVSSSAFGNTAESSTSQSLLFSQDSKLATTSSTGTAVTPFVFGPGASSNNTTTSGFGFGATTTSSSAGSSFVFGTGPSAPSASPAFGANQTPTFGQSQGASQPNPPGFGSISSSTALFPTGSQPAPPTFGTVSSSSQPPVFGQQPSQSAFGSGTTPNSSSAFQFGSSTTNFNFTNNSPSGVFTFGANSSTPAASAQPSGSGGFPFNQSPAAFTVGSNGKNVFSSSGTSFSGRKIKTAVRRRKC


Experiments:
yNup100FG (aa1-580) = yNup100FG (aa1-580) (yeast, UniProt Q02629 1-580, fluorescein-5-maleimide label (labelled protein mixed with unlabelled protein)); assay: fluorescence microscopy of particles formed by mixed purified labelled proteins
hNup153 (aa875-1475) = target: T1, hNup153 (aa875-1475); assay: as above
[1] = target: the molecule itself; assay: as above
yNup116FG (aa1-725) = yNup116FG (aa1-725) (yeast, UniProt Q02630 1-725, fluorescein-5-maleimide label (labelled protein mixed with unlabelled protein)); assay: as above
[2] = target: the molecule itself; assay: fluorescence microscopy of particles formed by one purified labelled protein

Row | binding result (yNup100FG (aa1-580)) | binding result (hNup153 (aa875-1475)) | binding result (yNup116FG (aa1-725)) | Binder | binding result [1] | binding result [2]
1 | binds | binds | binds | DNAJB2 isoform a (natural protein, human, Alexa Fluor 594 C5-maleimide label (labelled protein mixed with unlabelled protein)) MASYYEILDVPRSASADDIKKAYRRKALQWHPDKNPDNKEFAEKKFKEVAEAYEVLSDKHKREIYDRYGREGLTGTGTGPSRAEAGSGGPGFTFTFRSPEEVFREFFGSGDPFAELFDDLGPFSELQNRGSRHSGPFFTFSSSFPGHSDFSSSSFSFSPGAGAFRSVSTSTTFVQGRRITTRRIMENGQERVEVEEDGQLKSVTINGVPDDLALGLELSRREQQPSVTSRSGGTQVQQTPASCPLDSDLSEDEDLQLAMAYSLSEMEAAGKKPADVFC | binds | –
2 | binds | binds | binds | DNAJB8 (natural protein, human, Alexa Fluor 594 C5-maleimide label (labelled protein mixed with unlabelled protein)) MANYYEVLGVQASASPEDIKKAYRKLALRWHPDKNPDNKEEAEKKFKLVSEAYEVLSDSKKRSLYDRAGCDSWRAGGGASTPYHSPFDTGYTFRNPEDIFREFFGGLDPFSFEFWDSPFNSDRGGRGHGLRGAFSAGFGEFPAFMEAFSSFNMLGCSGGSHTTFSSTSFGGSSSGSSGFKSVMSSTEMINGHKVTTKRIVENGQERVEVEEDGQLKSVTVNGKEQLKWMDSKC | binds | –
3 | binds | binds | binds | DNAJB6 isoform b, wildtype (natural protein, Alexa Fluor 594 C5-maleimide label (labelled protein mixed with unlabelled protein)) not shown | – | binds
